Test results from the supplement of paper PMC9170038.

Tested on: MS2 coat protein
Experiment: apparent KD of MS2 coat protein; designed switch direction (-1 OFF switch, 1 ON switch): -1; higher = weaker reporter binding
Procedure, shortened: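 The buffer was Tris-HCl pH 7.5 with KCl, MgCl2, BSA, DTT, tRNA and Tween-20. In it, SNAP-549-labelled MS2 coat protein was titrated in doubling steps from 0.7 or 1.5 nM to 3 µM over chip-bound RNA switches transcribed by stalled E. coli RNA polymerase on Illumina chips. Apparent KD is the per-design median over clusters of curve fits to normalised fluorescence.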

[1] = Eterna round: R95, input ligand: microRNA oligo, concentration not stated
[2] = Eterna round: R95, input ligand: FMN 200 uM
[3] = Eterna round: R95, input ligand: none
[4] = input ligand: microRNA oligo, concentration not stated

## UUUUAACAUGAGGAUCACCCAUGUGAGGAUAUCGUUUUUUUUAUUAAUAUUAAUAAAACGAGAAGGCACAUUUU [JMF 18] (puzzle: Exclusion 1)
[1]
  apparent KD of MS2 coat protein: 140 nM

## CAUCAGGGAGGAUAUACAUAACUAAAAGGCUAGCAGUCCGUACAUGAGGAUCACCCAUGUAGAAGGCCCGAGUA [EX2 B.6] (Eterna round: R97, puzzle: Exclusion 2)
Input ligand: FMN 200 uM
  apparent KD of MS2 coat protein: 46.9 nM
Input ligand: none
  apparent KD of MS2 coat protein: 20 nM

## GUGGAGUAAGGAUAUACAUGAGGAUCACCCAUGUAAGGGAAGGUGAUGGGAGUAGAUAGUAGAAGGUACGAGGA [JR_Exclu3_Sub067] (puzzle: Exclusion 3)
[2]
  apparent KD of MS2 coat protein: 58.3 nM
[1]
  apparent KD of MS2 coat protein: 97.2 nM
[3]
  apparent KD of MS2 coat protein: 100 nM

## CCUCAGUGAGGAUAUGGUAGACACAAUCGGGAUUGAGAAGGCCAGAAGGUACAUGAGGAUCACCCAUGUAAUCA [Eternabot (L2) Solution 58] (Eterna round: R97, puzzle: Exclusion 4)
Input ligand: FMN 200 uM
  apparent KD of MS2 coat protein: 27.2 nM
Input ligand: none
  apparent KD of MS2 coat protein: 21.9 nM

## UCUCCCUGGCAAGGAUAUCCUGUGCGGUUCCGGCUCGUGUCUGUUACAUGAGGAUCACCCAUGUGGGAGAAGGUGCCUGUGGCU [Design 92] (Eterna round: R96, puzzle: Exclusion NG 2)
Input ligand: FMN 200 uM
  apparent KD of MS2 coat protein: 346 nM
[4]
  apparent KD of MS2 coat protein: 93.7 nM
Input ligand: none
  apparent KD of MS2 coat protein: 143 nM

## AAAUAGCAUGAGGAUAUUGGACUGGAUUCAGUGCGAGAAGGCAUGACAUGAGGAUCACCCAUGUUGUGUUGGGA [EX6 #9] (Eterna round: R97, puzzle: Exclusion 6)
Input ligand: FMN 200 uM
  apparent KD of MS2 coat protein: 42.6 nM
Input ligand: none
  apparent KD of MS2 coat protein: 17 nM

## UUUCAUCAUGUAGGAUAUGCGUGGCGAAGCUAUGCAGAAGGACAUGAGGAUCACCCAUGUUCUUGCGUCUGCGUACAGAUGCAA [JL ENG1 1.34] (Eterna round: R96, puzzle: Exclusion NG 1)
Input ligand: FMN 200 uM
  apparent KD of MS2 coat protein: 266 nM
[4]
  apparent KD of MS2 coat protein: 35.5 nM
Input ligand: none
  apparent KD of MS2 coat protein: 43 nM

## UAAAGCGUAGGAUAUACAUUCAUGAGCACCACCCGGUGCACACAUGAGGAUCACCCAUGUAGAAGGAUGCUACG [Eternabot (Original) Solution 49] (Eterna round: R97, puzzle: Exclusion 2)
Input ligand: FMN 200 uM
  apparent KD of MS2 coat protein: 14.6 nM
Input ligand: none
  apparent KD of MS2 coat protein: 17.6 nM

## AAAGAAGAGAGAAAACAACACAUGAGGAUCACCCAUGUGAGAAGAUGAGGGUGAUACAGGCUAUAUGCUCGUCUUAU (puzzle: Sensor v3, turn-off variant 1)
[2]
  apparent KD of MS2 coat protein: 55 nM
[1]
  apparent KD of MS2 coat protein: 281 nM
[3]
  apparent KD of MS2 coat protein: 52.4 nM

## AAAUAACAAGCAAUAAACCACAUGAGGAUCACCCAUGUAAAGGGUGAAUCGUCCACCCAAAAAAAAAAAAAAAAAUA [Mat - Sensor v2 - Eli mod - 147] (Eterna round: R96, puzzle: Sensor v2, turn-off variant)
Input ligand: FMN 200 uM
  apparent KD of MS2 coat protein: 43.3 nM
[4]
  apparent KD of MS2 coat protein: 178 nM
Input ligand: none
  apparent KD of MS2 coat protein: 52.3 nM

## CCGCUCCGUGUAGGAUAUCGUUGUACCCUGCGGCGAGAAGGACAUGAGGAUCACCCAUGUAUGUUAUUAUCACGCGUGGCGCAC [Design 71] (Eterna round: R96, puzzle: Exclusion NG 1)
Input ligand: FMN 200 uM
  apparent KD of MS2 coat protein: 18 nM
[4]
  apparent KD of MS2 coat protein: 15.8 nM
Input ligand: none
  apparent KD of MS2 coat protein: 19.3 nM

## AAACCCUGAGGAUAUACAUAACAACAAAGCCUCACGUGCCAACAUGAGGAUCACCCAUGUAGAAGGCAGGCCAA [Isananra] (puzzle: Exclusion 2)
[1]
  apparent KD of MS2 coat protein: 12.6 nM

## AUAAAUCAUGUAGGAUAUGCAUAGCAAAGCUAUGCAGAAGGACAUGAGGAUCACCCAUGUCAUUCCGUCUGGAGACAGACGGGA [Mat - Exclusion NG 1 - Mod of JL - D57] (Eterna round: R96, puzzle: Exclusion NG 1)
Input ligand: FMN 200 uM
  apparent KD of MS2 coat protein: 129 nM
[4]
  apparent KD of MS2 coat protein: 26.4 nM
Input ligand: none
  apparent KD of MS2 coat protein: 32 nM

## UGCAGACGAGGAUAUAAAUUUGAUAACAUGAGGAUCACCCAUGUGAUCGAUAGAUCAAAUUUAGAAGGCGUCUGCU [E5/7-A3] (Eterna round: R97, puzzle: Exclusion 5)
Input ligand: FMN 200 uM
  apparent KD of MS2 coat protein: 541 nM
Input ligand: none
  apparent KD of MS2 coat protein: 519 nM

## GCUGCGCGAGGAUAUGCGGUUUGCGCUGUGGCCCGUGGCGUACAUGAGGAUCACCCAUGUAGAAGGCGUGUGGG [Apr-15 SS2-55] (Eterna round: R96, puzzle: Exclusion 2)
Input ligand: FMN 200 uM
  apparent KD of MS2 coat protein: 27.6 nM
[4]
  apparent KD of MS2 coat protein: 21.3 nM
Input ligand: none
  apparent KD of MS2 coat protein: 30.1 nM

## CAGUACUGAGGAUAUACAUGAGGAUCACCCAUGUGUGUGAAUUUUAUGUGGUCGUAAUGUAGAAGGCAGUACUG [JR_Ex3_Sub027] (Eterna round: R97, puzzle: Exclusion 3)
Input ligand: FMN 200 uM
  apparent KD of MS2 coat protein: 407 nM
Input ligand: none
  apparent KD of MS2 coat protein: 86.3 nM

## AAGAGUGCAGGAUAUACUUGGUAGGGUAAGAUGAGUGAGUGACAUGAGGAUCACCCAUGUAGAAGGGCAGAGAG [JR_Exclu2_Sub056] (puzzle: Exclusion 2)
[1]
  apparent KD of MS2 coat protein: 107 nM
